B1: Ino80_(368–390) [Saccharomyces cerevisiae] / Taf14ET (Taf14_(174–244)) [Saccharomyces cerevisiae] (parent complex)
chain 1: DSKLNIKITLKQYHVKRLKKLIN
chain 2: KGSVDLEKLAFGLTKLNEDDLVGVVQMVTDNKTPEMNVTNNVEEGEFIIDLYSLPEGLLKSLWDYVKKNTE
B2: Snf5_(771–800) [Saccharomyces cerevisiae] / Taf14ET (Taf14_(174–244)) [Saccharomyces cerevisiae] (parent complex)
chain 1: SPPCYIIDHIPGHSLLLSIKLPGKVNTKEE
chain 2: B1 chain 2
B3: Sth1^WT-TAP [Saccharomyces cerevisiae] / Taf14-HA [Saccharomyces cerevisiae] (parent complex)
chain 1: MLQEQSELMSTVMNNTPTTVAALAAVAAASETNGKLGSEEQPEITIPKPRSSAQLEQLLYRYRAIQNHPKENKLEIKAIEDTFRNISRDQDIYETKLDTLRKSIDKGFQYDEDLLNKHLVALQLLEKDTDVPDYFLDLPDTKNDNTTAIEVDYSEKKPIKISADFNAKAKSLGLESKFSNATKTALGDPDTEIRISARISNRINELERLPANLGTYSLDDCLEFITKDDLSSRMDTFKIKALVELKSLKLLTKQKSIRQKLINNVASQAHHNIPYLRDSPFTAAAQRSVQIRSKVIVPQTVRLAEELERQQLLEKRKKERNLHLQKINSIIDFIKERQSEQWSRQERCFQFGRLGASLHNQMEKDEQKRIERTAKQRLAALKSNDEEAYLKLLDQTKDTRITQLLRQTNSFLDSLSEAVRAQQNEAKILHGEEVQPITDEEREKTDYYEVAHRIKEKIDKQPSILVGGTLKEYQLRGLEWMVSLYNNHLNGILADEMGLGKTIQSISLITYLYEVKKDIGPFLVIVPLSTITNWTLEFEKWAPSLNTIIYKGTPNQRHSLQHQIRVGNFDVLLTTYEYIIKDKSLLSKHDWAHMIIDEGHRMKNAQSKLSFTISHYYRTRNRLILTGTPLQNNLPELWALLNFVLPKIFNSAKTFEDWFNTPFANTGTQEKLELTEEETLLIIRRLHKVLRPFLLRRLKKEVEKDLPDKVEKVIKCKLSGLQQQLYQQMLKHNALFVGAGTEGATKGGIKGLNNKIMQLRKICNHPFVFDEVEGVVNPSRGNSDLLFRVAGKFELLDRVLPKFKASGHRVLMFFQMTQVMDIMEDFLRMKDLKYMRLDGSTKTEERTEMLNAFNAPDSDYFCFLLSTRAGGLGLNLQTADTVIIFDTDWNPHQDLQAQDRAHRIGQKNEVRILRLITTDSVEEVILERAMQKLDIDGKVIQAGKFDNKSTAEEQEAFLRRLIESETNRDDDDKAELDDDELNDTLARSADEKILFDKIDKERMNQERADAKAQGLRVPPPRLIQLDELPKVFREDIEEHFKKEDSEPLGRIRQKKRVYYDDGLTEEQFLEAVEDDNMSLEDAIKKRREARERRRLRQNGTKENEIETLENTPEASETSLIENNSFTAAVDEETNADKETTASRSKRRSSRKKRTISIVTAEDKENTQEESTSQENGGAKVEEEVKSSSVEIINGSESKKKKPKLTVKIKLNKTTVLENNDGKRAEEKPESKSPAKKTAAKKTKTKSKSLGIFPTVEKLVEEMREQLDEVDSHPRTSIFEKLPSKRDYPDYFKVIEKPMAIDIILKNCKNGTYKTLEEVRQALQTMFENARFYNEEGSWVYVDADKLNEFTDEWFKEHSS
chain 2: MVATVKRTIRIKTQQHILPEVPPVENFPVRQWSIEIVLLDDEGKEIPATIFDKVIYHLHPTFANPNRTFTDPPFRIEEQGWGGFPLDISVFLLEKAGERKIPHDLNFLQESYEVEHVIQIPLNKPLLTEELAKSGSTEETTANTGTIGKRRTTTNTTAEPKAKRAKTGSASTVKGSVDLEKLAFGLTKLNEDDLVGVVQMVTDNKTPEMNVTNNVEEGEFIIDLYSLPEGLLKSLWDYVKKNTE
B4: Sth1EBM (Sth1_(1183–1240)) [Saccharomyces cerevisiae] / Taf14ET (Taf14_(174–244)) [Saccharomyces cerevisiae] (parent complex)
chain 1: EVKSSSVEIINGSESKKKKPKLTVKIKLNKTTVLENNDGKRAEEKPESKSPAKKTAAK
chain 2: B1 chain 2

Variants of: B1
Assay: ITC; parent: 250 nM

Kd [µM] | Variant
3.86 | chain 1 I6A
3.87 | chain 1 L10A

Variants of: B2
Assay: ITC; parent: 2.48e+03 nM

Kd [µM] | Variant
41.5 | chain 1 L17A
189 | chain 1 I19A

Variants of: B3
Assay: Co-immunoprecipitation; IP: HA; IB: anti-TAP; parent: 1

ratio to parent | Variant
0.38 | chain 1 L1204A, chain 1 V1206A, chain 1 I1208A, chain 1 L1210A

Variants of: B4
Assay: ITC; parent: 50 nM

Variant | Kd [µM]
chain 1 K27E | 3.94
chain 1 K25E | 7.69
chain 1 I26A | 13.4

The remaining lines, values ahead:

Kd [µM] | Variant
1.14 | chain 1 L28A
2.04 | chain 1 V24A
2.06 | chain 1 L22A

Variants of: B4
Assay: ITC; parent: 50 nM
Remark: another data set of the same source

Kd [µM] | Variant
3.5 | chain 2 F47R
0.68 | chain 2 F47A
